According to patent US20120189639A1 (Merck Sharp & Dohme, published 2012):

T1: hGITR-hIgG (human, UniProt Q9Y5U5 26-161, limits assumed)
T1 construct: not shown: human IgG part of the fusion
T1 sequence: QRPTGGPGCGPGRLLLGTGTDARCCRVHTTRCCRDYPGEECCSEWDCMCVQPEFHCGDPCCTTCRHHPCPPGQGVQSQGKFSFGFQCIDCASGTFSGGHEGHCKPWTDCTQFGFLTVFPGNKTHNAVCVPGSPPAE

T2: human GITR on naïve CD4+ T cells (human, UniProt Q9Y5U5 26-241)
T2 sequence: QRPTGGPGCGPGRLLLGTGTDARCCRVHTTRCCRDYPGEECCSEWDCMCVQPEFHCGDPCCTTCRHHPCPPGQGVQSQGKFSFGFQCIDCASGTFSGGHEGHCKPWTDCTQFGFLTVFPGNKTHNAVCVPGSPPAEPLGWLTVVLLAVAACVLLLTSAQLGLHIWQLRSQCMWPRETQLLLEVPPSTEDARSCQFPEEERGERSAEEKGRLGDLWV


How the values were obtained:
[1] = molecular target: T1, hGITR-hIgG; assay: BIAcore SPR; hGITR-hIgG capture antigen, mAb analyte; apparent Kd
Experimental: (§1) BIAcore determinations are performed essentially as described at Example 4 of co-pending, commonly assigned U.S. patent application Ser. No. 11/511,635 (filed 29 Aug. 2006). Briefly, binding partners are immobilized on a BIAcore CM5 sensor chip using standard amine-coupling procedure. Kinetic constants for the various interactions are determined using BIAevaluation software 3.1. The Kd is determined using the calculated dissociation and association rate constants.

[2] = molecular target: T2, human GITR on naïve CD4+ T cells; assay: cell-based or functional assay
[3] = molecular target: T1, hGITR-hIgG; assay: BIAcore SPR; hGITR-hIgG capture antigen, mAb analyte
Experimental: as §1

Kd [1] [nM] | proliferation of naïve CD4+ T cells, mean, at 0.04 ng/mL Ab [2] | proliferation of naïve CD4+ T cells, mean, at 0.15 ng/mL Ab [2] | proliferation of naïve CD4+ T cells, mean, at 0.61 ng/mL Ab [2] | proliferation of naïve CD4+ T cells, mean, at 2.4 ng/mL Ab [2] | proliferation of naïve CD4+ T cells, mean, at 9.8 ng/mL Ab [2] | proliferation of naïve CD4+ T cells, mean, at 39.1 ng/mL Ab [2] | proliferation of naïve CD4+ T cells, mean, at 156 ng/mL Ab [2] | proliferation of naïve CD4+ T cells, mean, at 625 ng/mL Ab [2] | proliferation of naïve CD4+ T cells, mean, at 2500 ng/mL Ab [2] | proliferation of naïve CD4+ T cells, mean, at 10000 ng/mL Ab [2] | koff [3] [s⁻¹] | kon [3] [M⁻¹ s⁻¹] | Binder
15.6 | 31000 | 35600 | 32600 | 28900 | 34300 | 40100 | 45600 | 75100 | 116000 | 135000 | 6.9e-05 | 4000 | 61G6 (antibody, V domains shown, Parental rodent anti-human GITR monoclonal antibody from a hybridoma; kappa VL; also called 61G6.B6; hybridoma PTA-9891) VH: DVQLQESGPGLVKPSQSLSLTCTVTGYSITSDYAWNWIRQFPGNKLEWMGYISYSGSTRYNPSLKSRISITRDTSKNQFFLQLNSVTSEDTATYYCARQLGLRFFDYWGQGTTLTVSS VL: QIVLTQSPALMSASPGEKVTMTCSANSTVNYMYWYQQKPRSSPKPCIYLTSNLASGVPARFSGSGSGTSYSLTISSMEAEDAATYYCQQWNSNPPTFGAGTKLELRR
8.05 | 33300 | 30800 | 33800 | 43100 | 79300 | 124000 | 109000 | 111000 | 109000 | 96200 | 0.000766 | 95000 | 3D6 (antibody, V domains shown, Parental rodent anti-human GITR monoclonal antibody from a hybridoma; kappa VL; also called JL5.3D6; hybridoma PTA-9889) VH: EVQLVESGGGLVQPGRSLKLSCAASGFTFSDYYMAWVRQAPTKGLEWVAYIHANGGSTYYRDSVRGRFSISRDNGKSTLYLQMDSLRSEDTATYYCTTGSFMYAADYYIMDAWGQGASVTVSS VL: DVVMTQTPVSLSVSLGNQASISCRSSQSLLHSDGNTFLSWYFQKPGQSPQLLIYLASNRFSGVSNRFSGSGSGTDFTLKISRVEPEDLGVYYCFQHTHLPLTFGSGTKLEIKR
1.51 | 38500 | 33400 | 30200 | 35600 | 60000 | 104000 | 123000 | 120000 | 107000 | 91900 | 0.000919 | 610000 | 6H6 (antibody, V domains shown, Parental rodent anti-human GITR monoclonal antibody from a hybridoma; kappa VL; also called 6H6.C3; hybridoma PTA-9892) VH: QVQLQQSGAELMKPGASVKISCKATGYTFSRYWIEWIKQRPGHGLEWIGEILPGSGSSNYNEKFKDKATFTADTSSNTAYMQFSSLTSEDSAVYYCARKVYYYAMDFWGQGTSVTVSS VL: QIVLTQSPAIMSVSLGERVTVTCTASSSVSSSYFHWYQQKPGSSPKLWIYSTSNLASGVPARFSGSGSGTSYSLTISTMEAEDAATYYCHQYHRSPRTFGGGTKLEIKR
